In patent publication US20260184777A1 (BEIJING SUNGEN BIOMEDICAL TECHNOLOGY, published 2026):

B1: CM-50 (antibody, human IgG4 S228P, lambda, V domains shown)
VH: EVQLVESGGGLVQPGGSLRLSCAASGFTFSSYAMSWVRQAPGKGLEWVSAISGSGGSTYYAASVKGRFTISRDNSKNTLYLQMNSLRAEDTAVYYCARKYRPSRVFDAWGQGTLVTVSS
VL: SYELTQPPSVSVAPGQTARITCSGDALGDKYASWYQQKPGQAPVLVIYEDAKRPSGIPERFSGSNSGNTATLTISGTQAEDEADYYCQSNDADAVWVFGGGTKLTVLG
B2: CM-44 (antibody, human IgG4 S228P, lambda, V domains shown)
VH: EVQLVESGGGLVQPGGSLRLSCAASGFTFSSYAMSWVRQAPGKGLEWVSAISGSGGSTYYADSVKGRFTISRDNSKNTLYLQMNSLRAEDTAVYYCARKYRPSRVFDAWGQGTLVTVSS
VL: SYELTQPPSVSVAPGQTARITCSGDALGDKYASWYQQKPGQAPVLVIYEDAKRPSGIPERFSGSNSGNTATLTISGTQAEDEADYYCQSNDADAVWVFGGGTKLTVLG
B3: CM-46 (antibody, human IgG4 S228P, lambda, V domains shown)
VH: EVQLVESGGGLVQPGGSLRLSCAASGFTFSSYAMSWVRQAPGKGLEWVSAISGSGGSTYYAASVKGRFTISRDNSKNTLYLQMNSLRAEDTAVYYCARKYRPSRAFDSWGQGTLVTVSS
VL: SYELTQPPSVSVAPGQTARITCSGDALGDKFASWYQQKPGQAPVLVIYEDSKRPSGIPERFSGSNSGNTATLTISGTQAEDEADYYCQSNDADSVWVFGGGTKLTVLG
B4: CM-55 (antibody, human IgG4 S228P, lambda, V domains shown)
VH: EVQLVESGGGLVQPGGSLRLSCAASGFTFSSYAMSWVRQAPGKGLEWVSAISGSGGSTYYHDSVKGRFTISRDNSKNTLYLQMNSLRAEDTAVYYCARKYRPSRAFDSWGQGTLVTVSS
VL: SYELTQPPSVSVAPGQTARITCSGDALGDKFASWYQQKPGQAPVLVIYEDSKRPSGIPERFSGSNSGNTATLTISGTQAEDEADYYCQSNDADAVWVFGGGTKLTVLG
B5: CM-62 (antibody, human IgG4 S228P, lambda, V domains shown)
VH: EVQLVESGGGLVQPGGSLRLSCAASGFTFSSYVMSWVRQAPGKGLEWVSAISGSGGSTYYAASVKGRFTISRDNSKNTLYLQMNSLRAEDTAVYYCARKYRPSRVFDAWGQGTLVTVSS
VL: SYELTQPPSVSVAPGQTARITCSGDALGDKYASWYQQKPGQAPVLVIYEDARRPSGIPERFSGSNSGNTATLTISGTQAEDEADYYCQSNDADAVWVFGGGTKLTVLG
B6: CM-45 (antibody, human IgG4 S228P, lambda, V domains shown)
VH: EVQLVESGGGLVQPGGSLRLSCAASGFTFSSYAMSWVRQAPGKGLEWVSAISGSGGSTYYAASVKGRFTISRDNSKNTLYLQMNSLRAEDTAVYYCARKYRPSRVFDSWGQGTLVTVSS
VL: SYELTQPPSVSVAPGQTARITCSGDALGDKYASWYQQKPGQAPVLVIYEDAKRPSGIPERFSGSNSGNTATLTISGTQAEDEADYYCQSNDADAVWVFGGGTKLTVLG
B7: CM-58 (antibody, human IgG4 S228P, lambda, V domains shown)
VH: EVQLVESGGGLVQPGGSLRLSCAASGFTFSSYAMSWVRQAPGKGLEWVSAISGSGGSTWYAASVKGRFTISRDNSKNTLYLQMNSLRAEDTAVYYCARKYRPSRVFDAWGQGTLVTVSS
VL: SYELTQPPSVSVAPGQTARITCSGDALGDKYASWYQQKPGQAPVLVIYEDAKRPSGIPERFSGSNSGNTATLTISGTQAEDEADYYCQSNDIDAVWVFGGGTKLTVLG
B8: CM-53 (antibody, human IgG4 S228P, lambda, V domains shown)
VH: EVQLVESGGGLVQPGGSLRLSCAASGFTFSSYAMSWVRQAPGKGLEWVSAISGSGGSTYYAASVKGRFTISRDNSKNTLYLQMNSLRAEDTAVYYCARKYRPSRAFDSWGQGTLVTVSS
VL: SYELTQPPSVSVAPGQTARITCSGDALGDKYASWYQQKPGQAPVLVIYEDAKRPSGIPERFSGSNSGNTATLTISGTQAEDEADYYCQSNDADAVWVFGGGTKLTVLG
B9: CM-56 (antibody, human IgG4 S228P, lambda, V domains shown)
VH: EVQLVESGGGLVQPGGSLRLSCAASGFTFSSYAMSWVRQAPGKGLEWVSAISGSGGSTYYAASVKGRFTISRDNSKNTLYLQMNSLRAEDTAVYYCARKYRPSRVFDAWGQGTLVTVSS
VL: SYELTQPPSVSVAPGQTARITCSGDALGDKYASWYQQKPGQAPVLVIYEDAKRPSGIPERFSGSNSGNTATLTISGTQAEDEADYYCQSNDIDAVWVFGGGTKLTVLG
B10: CM-47 (antibody, human IgG4 S228P, lambda, V domains shown)
VH: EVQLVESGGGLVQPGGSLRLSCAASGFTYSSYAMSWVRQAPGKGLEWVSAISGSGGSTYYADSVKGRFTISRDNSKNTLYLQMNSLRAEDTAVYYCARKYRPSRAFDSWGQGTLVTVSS
VL: SYELTQPPSVSVAPGQTARITCSGDALGDKYASWYQQKPGQAPVLVIYEDSKRPSGIPERFSGSNSGNTATLTISGTQAEDEADYYCQSNDIDSVWVFGGGTKLTVLG
B11: CM-42 (antibody, human IgG4 S228P, lambda, V domains shown)
VH: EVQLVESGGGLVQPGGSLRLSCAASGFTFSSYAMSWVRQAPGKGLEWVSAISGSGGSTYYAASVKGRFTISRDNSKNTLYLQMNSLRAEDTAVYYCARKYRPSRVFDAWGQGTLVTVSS
VL: SYELTQPPSVSVAPGQTARITCSGDALGDKYASWYQQKPGQAPVLVIYEDSKRPSGIPERFSGSNSGNTATLTISGTQAEDEADYYCQSNDIDSVWVFGGGTKLTVLG
B12: CM-43 (antibody, human IgG4 S228P, lambda, V domains shown)
VH: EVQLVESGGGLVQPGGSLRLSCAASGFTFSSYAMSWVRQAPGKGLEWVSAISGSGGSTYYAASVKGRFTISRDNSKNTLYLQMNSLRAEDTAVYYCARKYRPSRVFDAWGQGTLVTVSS
VL: SYELTQPPSVSVAPGQTARITCSGDALGDKYASWYQQKPGQAPVLVIYEDAKRPSGIPERFSGSNSGNTATLTISGTQAEDEADYYCQSNDADSVWVFGGGTKLTVLG
B13: CM-60 (antibody, human IgG4 S228P, lambda, V domains shown)
VH: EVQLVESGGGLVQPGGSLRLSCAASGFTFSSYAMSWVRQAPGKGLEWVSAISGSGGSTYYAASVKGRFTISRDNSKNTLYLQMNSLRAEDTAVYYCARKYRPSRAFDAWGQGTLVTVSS
VL: SYELTQPPSVSVAPGQTARITCSGDALGDKYASWYQQKPGQAPVLVIYEDAKRPSGIPERFSGSNSGNTATLTISGTQAEDEADYYCQSNDIDAVWVFGGGTKLTVLG
B14: CM-49 (antibody, human IgG4 S228P, lambda, V domains shown)
VH: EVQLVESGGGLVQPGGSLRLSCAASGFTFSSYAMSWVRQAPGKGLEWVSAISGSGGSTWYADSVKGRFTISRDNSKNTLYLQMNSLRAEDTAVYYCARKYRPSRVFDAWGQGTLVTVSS
VL: SYELTQPPSVSVAPGQTARITCSGDALGDKYASWYQQKPGQAPVLVIYEDAKRPSGIPERFSGSNSGNTATLTISGTQAEDEADYYCQSNDIDSVWVFGGGTKLTVLG
B15: CM-52 (antibody, human IgG4 S228P, lambda, V domains shown)
VH: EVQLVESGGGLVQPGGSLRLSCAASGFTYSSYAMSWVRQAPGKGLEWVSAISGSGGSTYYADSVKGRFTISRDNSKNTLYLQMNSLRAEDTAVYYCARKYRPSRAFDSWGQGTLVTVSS
VL: SYELTQPPSVSVAPGQTARITCSGDALGDKYASWYQQKPGQAPVLVIYEDAKRPSGIPERFSGSNSGNTATLTISGTQAEDEADYYCQSNDIDSVWVFGGGTKLTVLG
B16: CM-61 (antibody, human IgG4 S228P, lambda, V domains shown)
VH: EVQLVESGGGLVQPGGSLRLSCAASGFTYSSYAMSWVRQAPGKGLEWVSAISGSGGSTYYAASVKGRFTISRDNSKNTLYLQMNSLRAEDTAVYYCARKYRPSRVFDAWGQGTLVTVSS
VL: SYELTQPPSVSVAPGQTARITCSGDALGDKYASWYQQKPGQAPVLVIYQDAKRPSGIPERFSGSNSGNTATLTISGTQAEDEADYYCQSNDADAVWVFGGGTKLTVLG
B17: CM-54 (antibody, human IgG4 S228P, lambda, V domains shown)
VH: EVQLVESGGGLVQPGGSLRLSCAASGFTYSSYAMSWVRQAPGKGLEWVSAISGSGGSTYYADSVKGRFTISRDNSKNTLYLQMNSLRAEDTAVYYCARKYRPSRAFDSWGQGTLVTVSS
VL: SYELTQPPSVSVAPGQTARITCSGDALGDKFASWYQQKPGQAPVLVIYEDSKRPSGIPERFSGSNSGNTATLTISGTQAEDEADYYCQSNDIDSVWVFGGGTKLTVLG
B18: CM-59 (antibody, human IgG4 S228P, lambda, V domains shown)
VH: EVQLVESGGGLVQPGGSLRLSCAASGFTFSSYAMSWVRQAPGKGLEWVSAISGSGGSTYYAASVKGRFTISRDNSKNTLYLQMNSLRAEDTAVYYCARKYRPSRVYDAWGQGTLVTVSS
VL: SYELTQPPSVSVAPGQTARITCSGDALGDKYASWYQQKPGQAPVLVIYEDAKRPSGIPERFSGSNSGNTATLTISGTQAEDEADYYCQSNDIDAVWVFGGGTKLTVLG
B19: CM-41 (antibody, human IgG4 S228P, lambda, V domains shown)
VH: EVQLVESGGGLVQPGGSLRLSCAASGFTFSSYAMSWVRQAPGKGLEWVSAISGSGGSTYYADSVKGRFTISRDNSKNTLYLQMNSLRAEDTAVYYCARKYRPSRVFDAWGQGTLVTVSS
VL: SYELTQPPSVSVAPGQTARITCSGDALGDKYASWYQQKPGQAPVLVIYEDSKRPSGIPERFSGSNSGNTATLTISGTQAEDEADYYCQSNDADAVWVFGGGTKLTVLG
B20: CM-40 (antibody, human IgG4 S228P, lambda, V domains shown)
VH: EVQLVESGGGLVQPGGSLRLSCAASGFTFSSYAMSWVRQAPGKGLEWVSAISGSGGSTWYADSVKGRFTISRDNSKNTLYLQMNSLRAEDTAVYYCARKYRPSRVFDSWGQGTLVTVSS
VL: SYELTQPPSVSVAPGQTARITCSGDALGDKYASWYQQKPGQAPVLVIYEDSKRPSGIPERFSGSNSGNTATLTISGTQAEDEADYYCQSNDVDSVWVFGGGTKLTVLG
B21: CM-57 (antibody, human IgG4 S228P, lambda, V domains shown)
VH: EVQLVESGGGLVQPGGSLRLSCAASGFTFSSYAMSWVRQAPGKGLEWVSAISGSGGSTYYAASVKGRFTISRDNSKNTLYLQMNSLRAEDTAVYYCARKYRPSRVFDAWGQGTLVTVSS
VL: SYELTQPPSVSVAPGQTARITCSGDALGDKFASWYQQKPGQAPVLVIYEDAKRPSGIPERFSGSNSGNTATLTISGTQAEDEADYYCQSNDIDAVWVFGGGTKLTVLG
B22: CM-48 (antibody, human IgG4 S228P, lambda, V domains shown)
VH: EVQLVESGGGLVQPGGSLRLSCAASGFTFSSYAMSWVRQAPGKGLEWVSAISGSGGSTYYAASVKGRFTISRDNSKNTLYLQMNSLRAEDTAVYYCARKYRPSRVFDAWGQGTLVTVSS
VL: SYELTQPPSVSVAPGQTARITCSGDALGDKFASWYQQKPGQAPVLVIYEDSKRPSGIPERFSGSNSGNTATLTISGTQAEDEADYYCQSNDIDSVWVFGGGTKLTVLG

What follows are binders tested against T1, human S100A8/A9 heterodimeric antigen, His-tagged (hS100A8/A9-His) (human, UniProt P05109 1-93; P06702 1-114) (assay: cell-based or functional assay).
T1 sequence 1: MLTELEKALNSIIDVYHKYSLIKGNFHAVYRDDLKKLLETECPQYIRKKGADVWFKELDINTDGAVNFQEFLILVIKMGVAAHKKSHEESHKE
T1 sequence 2: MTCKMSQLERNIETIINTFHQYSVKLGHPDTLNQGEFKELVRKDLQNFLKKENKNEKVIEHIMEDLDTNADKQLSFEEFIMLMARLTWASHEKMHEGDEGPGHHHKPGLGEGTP

**Q.** Which “Relative IC50 (IC50 relative to CM-1), IL-6 release from hS100A8/A9-activated human PBMCs” value (shortened to “Relative IC50”) does the source give for B1 here?
**A.** 0.679 relative to CM-1

**Q.** With B2 as the binder, how does the “Relative IC50” value read?
**A.** 1.44 relative to CM-1

**Q.** With B3 as the binder, how does the “Relative IC50” value read?
**A.** 1.51 relative to CM-1

**Q.** With B4 as the binder, how does the “Relative IC50” value read?
**A.** 1.67 relative to CM-1

**Q.** With B5 as the binder, how does the “Relative IC50” value read?
**A.** 1.58 relative to CM-1

**Q.** How did the “Relative IC50” value turn out when B6 was run?
**A.** 2.09 relative to CM-1

**Q.** With B7 as the binder, how does the “Relative IC50” value read?
**A.** 1.52 relative to CM-1

**Q.** How did the “Relative IC50” value turn out when B8 was run?
**A.** 0.357 relative to CM-1

**Q.** For B9, which “Relative IC50” value is on record?
**A.** 1.12 relative to CM-1

**Q.** With B10 as the binder, how does the “Relative IC50” value read?
**A.** 2.12 relative to CM-1

**Q.** Which “Relative IC50” value does the source give for B11 here?
**A.** 0.866 relative to CM-1

**Q.** Which “Relative IC50” value does the source give for B12 here?
**A.** 1.99 relative to CM-1

**Q.** With B13 as the binder, how does the “Relative IC50” value read?
**A.** 0.936 relative to CM-1

**Q.** For B14, which “Relative IC50” value is on record?
**A.** 0.617 relative to CM-1

**Q.** B15 was tested. Which “Relative IC50” value did it give?
**A.** 1.19 relative to CM-1

**Q.** Which “Relative IC50” value does the source give for B16 here?
**A.** 0.923 relative to CM-1

**Q.** Which “Relative IC50” value does the source give for B17 here?
**A.** 0.997 relative to CM-1

**Q.** With B18 as the binder, how does the “Relative IC50” value read?
**A.** 1.04 relative to CM-1

**Q.** For B19, which “Relative IC50” value is on record?
**A.** 1.11 relative to CM-1

**Q.** B20 was tested. Which “Relative IC50” value did it give?
**A.** 2.18 relative to CM-1

**Q.** How did the “Relative IC50” value turn out when B21 was run?
**A.** 1.16 relative to CM-1

**Q.** With B22 as the binder, how does the “Relative IC50” value read?
**A.** 1.58 relative to CM-1
